This passage reports Kd and affinity, FACS (Jurkat) results from US20240002540A1.

A word on the Kd: it is a measure of binding affinity in units of concentration.

Experiment [1] deals with FcγRI recombinant protein, His-tagged (UniProt P12314). As to the kind of experiment: SPR (Biacore), His-tagged receptor captured by anti-His antibody on CM5 chip, antibody as analyte. On the technique in general: In SPR one partner is held on a chip, and binding of the other changes the refractive index at the surface.
The target in experiment [2] is human CD3 on T cells (Jurkat cells; human peripheral blood CD4+ and CD8+ T-cells) (human) (UniProt P07766). In words: flow cytometry on Jurkat cells.

FcγRI recombinant protein, His-tagged, sequence (P12314 16-288 limits assumed): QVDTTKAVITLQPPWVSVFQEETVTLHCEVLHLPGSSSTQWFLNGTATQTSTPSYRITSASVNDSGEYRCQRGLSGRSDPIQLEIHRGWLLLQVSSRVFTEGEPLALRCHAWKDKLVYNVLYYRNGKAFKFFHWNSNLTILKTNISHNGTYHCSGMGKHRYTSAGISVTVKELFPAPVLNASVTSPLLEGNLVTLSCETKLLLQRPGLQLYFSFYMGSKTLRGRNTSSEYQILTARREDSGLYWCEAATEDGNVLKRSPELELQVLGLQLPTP

In the case of IgG4 isotype control (antibody), the Kd in experiment [1] is 14 nM. In experiment [2], OKT3-hIgG1 (antibody) yielded an affinity, FACS (Jurkat) of 0.27 nM.
